This is an account of results in patent US20200140561A1 (BLUEFIN BIOMEDICINE, published 2020).

Common to all, as to experiment: cell-based or functional assay
Test [1] concerns the target T1, human IL1RAP (human, UniProt Q9NPH3 21-570).
T1 sequence: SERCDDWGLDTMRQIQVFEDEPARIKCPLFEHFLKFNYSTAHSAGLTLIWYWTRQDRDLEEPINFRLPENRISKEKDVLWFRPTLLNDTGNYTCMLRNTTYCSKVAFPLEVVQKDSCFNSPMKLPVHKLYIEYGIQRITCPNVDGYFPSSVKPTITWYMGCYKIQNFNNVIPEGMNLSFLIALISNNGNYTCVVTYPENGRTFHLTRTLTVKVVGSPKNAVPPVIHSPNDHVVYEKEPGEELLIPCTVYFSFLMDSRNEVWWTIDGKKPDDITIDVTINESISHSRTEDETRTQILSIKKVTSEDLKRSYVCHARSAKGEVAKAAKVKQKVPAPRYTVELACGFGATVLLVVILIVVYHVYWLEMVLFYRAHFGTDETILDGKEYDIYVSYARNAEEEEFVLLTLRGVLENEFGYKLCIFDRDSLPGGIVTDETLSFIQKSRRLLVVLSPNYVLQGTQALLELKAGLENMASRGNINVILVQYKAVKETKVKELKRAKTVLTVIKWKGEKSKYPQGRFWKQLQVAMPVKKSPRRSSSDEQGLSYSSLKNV

In test [2] the target is T1, human IL1RAP. This is another data set of the same source.
Test [3] has as its target T1, human IL1RAP. The source holds these as a separate data set.
Test [4] has as its target T1, human IL1RAP. This is another data set of the same source.

A value given as a limit tells only on which side of the number the result lay.

B1: 36A10_21B6 (antibody, V domains shown)
VH: QGQVVESGGGVVQPGRSLRLSCAASGFTFSSYTLHWVRQAPGKGLEWVAVIWYDGSNKYYVDSVKGRFTISRDNSKNTLYLQMNSLRAEDTAVYYCAREYGSGSYYNVYYGMDVWGQGTTVTLSS
VL: DIVMTQSPLSLPVTPGEPASISCRSSQSLLHSNGYNYLDWYLQKPGQSPHLLIYLASNRASGVPDRFSGSGSGTDFTLKISRVEAEDVGFYYCMQTLQIPLTFGGGTKVEIK
B1: the “EC50 (inhibition of IL-1beta signalling, HEK-Blue IL-1beta reporter cells, 0.5 ng/ml IL-1beta, Abs. 620 nM)” value in test [1] was 0.29 nM. In addition, the “EC50 (inhibition of IL-1alpha signalling, HEK-Blue IL-1beta reporter cells, 0.5 ng/ml IL-1a, Abs. 620 nM)” value in test [2] is 0.66 nM. Also, the “EC50 (inhibition of IL-33 signalling, HEK-Blue IL-33 reporter cells, 0.5 ng/ml IL-33, Abs. 620 nm; partial)” value in test [3] was determined as 1.76 nM.

B2: 5G8_18A1 (antibody, V domains shown)
VH: QVELQESGPGLVKPSDTLSLTCTVTGGSISTYYWSWIRQPPGKGLEWIGYIFYTGTTNYNPSLKSRVTISVDASKNQFSLKLNSVTAADTAVYYCARDGSLDYWGQGALVTVSS
VL: DIQMTQSPSSLSASVGDRVTITCRASQSISNYLNWYQQKPGKAPKLLIFVASLLQSGVPSRFSGSGSGTDFTLTISSLQPEDFATYYCQQSYSTPFTFGPGTKLEIK
B2: the “EC50 (inhibition of IL-1beta signalling, HEK-Blue IL-1beta reporter cells, 0.5 ng/ml IL-1beta, Abs. 620 nM)” value in test [1] amounted to 0.58 nM. For the same molecule, in test [2], the “EC50 (inhibition of IL-1alpha signalling, HEK-Blue IL-1beta reporter cells, 0.5 ng/ml IL-1a, Abs. 620 nM)” value was found to be 0.83 nM.

B3: 16H2_17D2 (antibody, V domains shown)
VH: QVQLVESGGGVVQPGGSLRLSCAASGFTFSSHGMHWVRQAPGKGLEWVAVIWYDGSNKFYTDSVQGRFTISRDNSKNTLNLQMNSLRAEDTAVYYCAREGLRAGYYFDFWGQGTLVTVSS
VL: DIQMTQSPSSLSASVGDRVTITCRASQRISFYSNWYQQKPGKAPKLLIYAASSLQSGVPSRFSGSGSGTDFTLTISSLQPEDFATYFCQQSHSTPLTFGGGTKLEIK
B3: in test [1], the “EC50 (inhibition of IL-1beta signalling, HEK-Blue IL-1beta reporter cells, 0.5 ng/ml IL-1beta, Abs. 620 nM)” value was 0.1 nM. Also, the “EC50 (inhibition of IL-1alpha signalling, HEK-Blue IL-1beta reporter cells, 0.5 ng/ml IL-1a, Abs. 620 nM)” value in test [2] stood at 0.09 nM.

B4: 37E10_15B5 (antibody, V domains shown)
VH: QVQLVESGGGVVQPGRSLRLSCAASGFTFRSHGMHWVRQAPGKGLEWVAVIWYDGSSEYYADSVKGRFTISRDNSKNTLYLQMNSLRAEDTAVYYCARENVYGSGWFFDYWGQGTLVTVSS
VL: EIVMTQSPATLSVSPGERASLSCRASQSVGSNLAWYQQRPGQAPRLLIFGASTRATGIPARFSGSRSGTEFTLTISSLQSEDFALYYCQQYNNWPPWTFGQGTKLEIK
For B4, in test [4], the “EC50 against IL-1α (IL-1 signaling reporter cell assay)” value is below 1 nM and the “EC50 against IL-1β (IL-1 signaling reporter cell assay)” value was below 1 nM. Moreover, the “EC50 (inhibition of IL-1beta signalling, HEK-Blue IL-1beta reporter cells, 0.5 ng/ml IL-1beta, Abs. 620 nM)” value in test [1] amounted to 0.15 nM. Moreover, the “EC50 (inhibition of IL-1alpha signalling, HEK-Blue IL-1beta reporter cells, 0.5 ng/ml IL-1a, Abs. 620 nM)” value in test [2] is 0.19 nM. In test [3], the “EC50 (inhibition of IL-33 signalling, HEK-Blue IL-33 reporter cells, 0.5 ng/ml IL-33, Abs. 620 nm; partial, lower plateau about 0.4)” value stood at 0.32 nM.

B5: 44E5_15C5 (antibody, V domains shown)
VH: QVQLVESGGGVVQPGRSLRLSCAASGFTFRSHGMHWVRQAPGKGLEWVAVIWYDGSSDYYADSVKGRFTISRDNSKNTLFLQMNSLSAEDTAVYYCARENVYGSGWFFDYWGQGTLVTVSS
VL: EIVMTQSPATLSVSPGERASLSCRASQSVGSNLAWYQQKPGQAPRLLIFGASTRATGIPARFSGSRSGTEFTLTISSLQSEDFALYYCQQYNNWPPWTFGQGTKLEIK
As for B5, in test [4], the “EC50 against IL-1α (IL-1 signaling reporter cell assay)” value was below 1 nM and the “EC50 against IL-1β (IL-1 signaling reporter cell assay)” value was below 1 nM. In test [1], the “EC50 (inhibition of IL-1beta signalling, HEK-Blue IL-1beta reporter cells, 0.5 ng/ml IL-1beta, Abs. 620 nM)” value was found to be 0.17 nM. Further, the “EC50 (inhibition of IL-1alpha signalling, HEK-Blue IL-1beta reporter cells, 0.5 ng/ml IL-1a, Abs. 620 nM)” value in test [2] is 0.18 nM. In addition, in test [3], the “EC50 (inhibition of IL-33 signalling, HEK-Blue IL-33 reporter cells, 0.5 ng/ml IL-33, Abs. 620 nm; partial, lower plateau about 0.4)” value stood at 0.44 nM.
